Residue numbers refer to the chain shown, from its start.
B1: Hex-B12, hexavalent Siglec8-VHH-Fc (xELL) (Fc fusion)
chain: QVQVVESGGGLVQPGGSLRLSCAASGSTSLLNAMAWYRQAPGKERELVAAISSGGGTYYADSVKGRFTISTNNAKNTLYLQMNSLKPEDTAMYYCAPGPNYSDYEEINWGQGTQVTVKPGGSGGSQVQVVESGGGLVQPGGSLRLSCAASGSTSLLNAMAWYRQAPGKERELVAAISSGGGTYYADSVKGRFTISTNNAKNTLYLQMNSLKPEDTAMYYCAPGPNYSDYEEINWGQGTQVTVKPGGSGGSQVQVVESGGGLVQPGGSLRLSCAASGSTSLLNAMAWYRQAPGKERELVAAISSGGGTYYADSVKGRFTISTNNAKNTLYLQMNSLKPEDTAMYYCAPGPNYSDYEEINWGQGTQVTVKPGGGGDKTHTCPPCPAPGGPSVFLFPPKPKDTLMISRTPEVTCVVVDVSHEDPEVKFNWYVDGVEVHNAKTKPREEQYNSTYRVVSVLTVLHQDWLNGKEYKCKVSNKALPAPIEKTISKAKGQPREPQVYTLPPSRDELTKNQVSLTCLVKGFYPSDIAVEWESNGQPENNYKTTPPVLDSDGSFFLYSKLTVDKSRWQQGNVFSCSVMHEALHNHYTQKSLSLSPGK
notes: Homodimer through the Fc; also called cx8466
B2: Tet-E2, tetravalent Siglec8-VHH-Fc (xELL) (Fc fusion)
chain: QVQLVESGGGLVQPGGSLRLSCATSGIIFTSNVINWYRQAPGKQREFVAFITSITSGQSTMYADAVKGRFTVSRDNDKNIGYLQMTSLQPEDTARYVCNVGAYWGQGTQVTVKPGGSGGSQVQLVESGGGLVQPGGSLRLSCATSGIIFTSNVINWYRQAPGKQREFVAFITSITSGQSTMYADAVKGRFTVSRDNDKNIGYLQMTSLQPEDTARYVCNVGAYWGQGTQVTVKPGGGGDKTHTCPPCPAPGGPSVFLFPPKPKDTLMISRTPEVTCVVVDVSHEDPEVKFNWYVDGVEVHNAKTKPREEQYNSTYRVVSVLTVLHQDWLNGKEYKCKVSNKALPAPIEKTISKAKGQPREPQVYTLPPSRDELTKNQVSLTCLVKGFYPSDIAVEWESNGQPENNYKTTPPVLDSDGSFFLYSKLTVDKSRWQQGNVFSCSVMHEALHNHYTQKSLSLSPGK
notes: Homodimer through the Fc; also called cx8463
B3: Hex-E2, hexavalent Siglec8-VHH-Fc (xELL) (Fc fusion)
chain: QVQLVESGGGLVQPGGSLRLSCATSGIIFTSNVINWYRQAPGKQREFVAFITSITSGQSTMYADAVKGRFTVSRDNDKNIGYLQMTSLQPEDTARYVCNVGAYWGQGTQVTVKPGGSGGSQVQLVESGGGLVQPGGSLRLSCATSGIIFTSNVINWYRQAPGKQREFVAFITSITSGQSTMYADAVKGRFTVSRDNDKNIGYLQMTSLQPEDTARYVCNVGAYWGQGTQVTVKPGGSGGSQVQLVESGGGLVQPGGSLRLSCATSGIIFTSNVINWYRQAPGKQREFVAFITSITSGQSTMYADAVKGRFTVSRDNDKNIGYLQMTSLQPEDTARYVCNVGAYWGQGTQVTVKPGGGGDKTHTCPPCPAPGGPSVFLFPPKPKDTLMISRTPEVTCVVVDVSHEDPEVKFNWYVDGVEVHNAKTKPREEQYNSTYRVVSVLTVLHQDWLNGKEYKCKVSNKALPAPIEKTISKAKGQPREPQVYTLPPSRDELTKNQVSLTCLVKGFYPSDIAVEWESNGQPENNYKTTPPVLDSDGSFFLYSKLTVDKSRWQQGNVFSCSVMHEALHNHYTQKSLSLSPGK
notes: Homodimer through the Fc; also called cx8522
B4: Tet-D1, tetravalent Siglec8-VHH-Fc (xELL) (Fc fusion)
chain: QVQLVESGGGLVQPGGSLRLSCAASGSIASIHGMGWYRQAPGKERELVAAIAGEGSTYYADSVKGRFTISRDFAKNTLYLQMNNLKAEDTAMYYCANNDERDDYWGQGTQVTVKPGGSGGSQVQLVESGGGLVQPGGSLRLSCAASGSIASIHGMGWYRQAPGKERELVAAIAGEGSTYYADSVKGRFTISRDFAKNTLYLQMNNLKAEDTAMYYCANNDERDDYWGQGTQVTVKPGGGGDKTHTCPPCPAPGGPSVFLFPPKPKDTLMISRTPEVTCVVVDVSHEDPEVKFNWYVDGVEVHNAKTKPREEQYNSTYRVVSVLTVLHQDWLNGKEYKCKVSNKALPAPIEKTISKAKGQPREPQVYTLPPSRDELTKNQVSLTCLVKGFYPSDIAVEWESNGQPENNYKTTPPVLDSDGSFFLYSKLTVDKSRWQQGNVFSCSVMHEALHNHYTQKSLSLSPGK
notes: Homodimer through the Fc; also called cx8469
B5: Hex-D1, hexavalent Siglec8-VHH-Fc (xELL) (Fc fusion)
chain: QVQLVESGGGLVQPGGSLRLSCAASGSIASIHGMGWYRQAPGKERELVAAIAGEGSTYYADSVKGRFTISRDFAKNTLYLQMNNLKAEDTAMYYCANNDERDDYWGQGTQVTVKPGGSGGSQVQLVESGGGLVQPGGSLRLSCAASGSIASIHGMGWYRQAPGKERELVAAIAGEGSTYYADSVKGRFTISRDFAKNTLYLQMNNLKAEDTAMYYCANNDERDDYWGQGTQVTVKPGGSGGSQVQLVESGGGLVQPGGSLRLSCAASGSIASIHGMGWYRQAPGKERELVAAIAGEGSTYYADSVKGRFTISRDFAKNTLYLQMNNLKAEDTAMYYCANNDERDDYWGQGTQVTVKPGGGGDKTHTCPPCPAPGGPSVFLFPPKPKDTLMISRTPEVTCVVVDVSHEDPEVKFNWYVDGVEVHNAKTKPREEQYNSTYRVVSVLTVLHQDWLNGKEYKCKVSNKALPAPIEKTISKAKGQPREPQVYTLPPSRDELTKNQVSLTCLVKGFYPSDIAVEWESNGQPENNYKTTPPVLDSDGSFFLYSKLTVDKSRWQQGNVFSCSVMHEALHNHYTQKSLSLSPGK
notes: Homodimer through the Fc; also called cx8523
B6: Tet-B12, tetravalent Siglec8-VHH-Fc (xELL) (Fc fusion)
chain: QVQVVESGGGLVQPGGSLRLSCAASGSTSLLNAMAWYRQAPGKERELVAAISSGGGTYYADSVKGRFTISTNNAKNTLYLQMNSLKPEDTAMYYCAPGPNYSDYEEINWGQGTQVTVKPGGSGGSQVQVVESGGGLVQPGGSLRLSCAASGSTSLLNAMAWYRQAPGKERELVAAISSGGGTYYADSVKGRFTISTNNAKNTLYLQMNSLKPEDTAMYYCAPGPNYSDYEEINWGQGTQVTVKPGGGGDKTHTCPPCPAPGGPSVFLFPPKPKDTLMISRTPEVTCVVVDVSHEDPEVKFNWYVDGVEVHNAKTKPREEQYNSTYRVVSVLTVLHQDWLNGKEYKCKVSNKALPAPIEKTISKAKGQPREPQVYTLPPSRDELTKNQVSLTCLVKGFYPSDIAVEWESNGQPENNYKTTPPVLDSDGSFFLYSKLTVDKSRWQQGNVFSCSVMHEALHNHYTQKSLSLSPGK
notes: Homodimer through the Fc; also called cx8467
B7: Siglec8 hzG2v2.1, monomeric VHH-hIgG1 fusion (Fc NNT) (Fc fusion)
chain: EVQLLESGGGEVQPGGSLRLSCAASGSISIFSMYVVAWYRQAPGKEREWVAFIQRGGTANYAESAKGRFTISRDNAKNTVYLQMSSLRAEDTAVYYCNYINSDNEIGGPWGQGTLVTVKP
notes: Monomeric format; not shown: non-dimerizing human IgG1 Fc variant lacking a hinge (Fc NNT)
B8: Siglec8 hzG2v6.1, monomeric VHH-hIgG1 fusion (Fc NNT) (Fc fusion)
chain: B7 chain with E46Q, A51S
notes: as for B7
B9: Siglec8 hzG2v24, monomeric VHH-hIgG1 fusion (Fc NNT) (Fc fusion)
chain: B7 chain with E1Q, Q3T, L5K, E11L, Q13R, P14T, E46Q
notes: as for B7
B10: Siglec8 hzG2v16, monomeric VHH-hIgG1 fusion (Fc NNT) (Fc fusion)
chain: B7 chain with M33L
notes: as for B7
B11: Siglec8 hzG2v15, monomeric VHH-hIgG1 fusion (Fc NNT) (Fc fusion)
chain: B7 chain with M33Y
notes: as for B7
B12: Siglec8 hzG2v13, monomeric VHH-hIgG1 fusion (Fc NNT) (Fc fusion)
chain: B7 chain with N101T
notes: as for B7
B13: Siglec8 hzG2v14, monomeric VHH-hIgG1 fusion (Fc NNT) (Fc fusion)
chain: B7 chain with S102T
notes: as for B7
B14: Siglec8 hzG2v11, monomeric VHH-hIgG1 fusion (Fc NNT) (Fc fusion)
chain: B7 chain with N101Q
notes: as for B7
B15: Siglec8 hzG2v12, monomeric VHH-hIgG1 fusion (Fc NNT) (Fc fusion)
chain: B7 chain with N101S
notes: as for B7

These binders were tested against T1, human Siglec-8 (full-length, on transfected CHO or 293 cells, or native on human eosinophils) (human, UniProt Q9NYZ4 17-499) (assay: flow cytometry on human eosinophils (CD16- CCR3+) from whole blood; anti-human AF647 secondary; MFI).
From the text: To determine if increasing the valency of Siglec-8 antibodies could enhance agonist activity, the parental llama B12, D1 and E2 VHH sequences were used to generate tetravalent (Tet-B12 (cx8467; SEQ ID NO:50 linked to an Fe), Tet-D1 (cx8469; SEQ ID NO:56 linked to an Fe), and Tet-E2 (cx8463; SEQ ID NO:62 linked to an Fc)) and hexavalent (Hex-B12 (cx8466; SEQ ID NO:51 linked to an Fe), Hex-D1 (cx8523; SEQ ID NO:57 linked to an Fe), and Hex-E2 (cx8522; SEQ ID NO:165 linked to an Fc)), Siglec8-VHH-Fc antibodies linked to a reduced effector function xELL human Fc region via linker 2. The bivalent (Bi-B12 (cx8982), Bi-D1 (cx8983) and Bi-E2 (cx8984)), tetravalent, and hexavalent Siglec8-VHH-Fc antibodies were assessed by flow cytometry for binding to eosinophils (CD16⁻ CCR3⁺). Cells were isolated from whole blood by centrifugation, washed twice with 2% FBS PBS, and resuspended in 1×RBC lysis buffer for 10 minutes at room temperature (RT), washed once in 2% FBS PBS and treated with a second RBC lysis step and washed twice with 2% FBS. Cells were seeded at 200 k/well and resuspended in Human FC block for 10 minutes at RT. Cells were spun down and then resuspended in titrated test articles starting at 200 nM 1:4 and incubated for 30 minutes at 4° C. before being washed twice and resuspended in secondary mixture (2*; anti-CCR3 FITC, anti-human AF647, PI, anti-CD16 BV605) and incubated for 30 minutes at 4° C., washed twice, and bound antibodies were detected via flow cytometry (Novocyte).
As shown in FIG. 2A-2C, bivalent, tetravalent, and hexavalent Siglec8-VHH-Fc antibodies B12 (FIG. 2A), D1 (FIG. 2B) and E2 (FIG. 2C) bound to eosinophils. The calculated affinity was similar between the bivalent, tetravalent, and hexavalent hzSiglec8-VHH-Fc antibodies. The observed Bmax was reduced with increasing valency as anticipated, due the fact that the Fc portion of the antibody was detected in this assay and the ratio of Fc regions to anti-Siglec-8 binding domains is inverse to valency. No binding was observed on other granulocyte populations (CD16⁺ CCR3⁻).

T1 sequence (Q9NYZ4 17-499): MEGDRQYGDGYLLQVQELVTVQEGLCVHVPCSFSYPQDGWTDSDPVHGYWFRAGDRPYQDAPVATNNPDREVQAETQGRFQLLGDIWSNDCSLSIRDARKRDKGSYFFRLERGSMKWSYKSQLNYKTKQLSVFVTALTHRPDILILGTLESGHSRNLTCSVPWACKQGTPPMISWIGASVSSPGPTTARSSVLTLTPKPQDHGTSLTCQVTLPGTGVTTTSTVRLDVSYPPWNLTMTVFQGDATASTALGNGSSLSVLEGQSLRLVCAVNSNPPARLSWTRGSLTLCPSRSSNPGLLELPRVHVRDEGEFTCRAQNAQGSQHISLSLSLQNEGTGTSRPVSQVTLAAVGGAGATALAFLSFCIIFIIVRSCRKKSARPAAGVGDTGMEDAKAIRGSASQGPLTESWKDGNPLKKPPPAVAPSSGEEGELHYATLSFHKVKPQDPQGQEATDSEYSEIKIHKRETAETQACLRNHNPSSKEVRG

Binder	binding result
B1	binds
B2	binds
B3	binds
B4	binds
B5	binds
B6	binds

These binders were tested against T1, human Siglec-8 (full-length, on …) (assay: flow cytometry on 293 cells transiently transfected with full-length human Siglec-8; A647 anti-human Fc-gamma secondary; median fluorescence, nonlinear fit; table under the graph).
Procedure: (§1) The binding of the lmG2 and humanized versions (further including Siglec8 hzG2v14), formatted as monomeric VHH-hIgG1 fusions proteins using a non-dimerizing human IgG1 Fe variant region lacking a hinge Fe NNT, was assessed by flow cytometry using 293 cells that had been transiently transfected with full-length human Siglec-8 and detected with an anti-human AF647 secondary antibody. Binding specificity was assessed using untransfected 293 cells as a control. For the binding assays, Siglec-8 293 cells or untransformed 293 cells were seeded in a 96 well U-bottom plate with 50 k cells/well in FACS buffer and incubated at 4° C. with a titration of anti-Siglec8-VHH-NNT for 30 minutes. After washing, the plates were incubated with an A647-conjugated anti-human Fcγ specific secondary antibody diluted 1:10,000 in FACS buffer for 20 minutes at 4° C. The plates were washed, and binding was determined by flow cytometry quantitating anti-human A647 median fluorescent intensity. The maximum specific binding (Bmax) and affinity (Kd) for was determined from the flow cytometry binding data using a nonlinear fit model.

Binder	Bmax
B7	3.81e+06 Median (anti-human A647)
B8	3.63e+06 Median (anti-human A647)
B9	1.27e+06 Median (anti-human A647)
B10	1.49e+06 Median (anti-human A647)
B11	1.4e+06 Median (anti-human A647)
B12	1.06e+06 Median (anti-human A647)
B13	1.35e+06 Median (anti-human A647)
B14	1.47e+06 Median (anti-human A647)
B15	1.25e+06 Median (anti-human A647)

Each binder was assayed against T1, human Siglec-8 (full-length, on …) (assay: flow cytometry on 293 cells transiently transfected with full-length human Siglec-8; A647 anti-human Fc-gamma secondary; median fluorescence, nonlinear fit; table under the graph (Kd column without unit, concentration axis nM Ab)).
Procedure: as §1

Binder	Kd [pM]
B7	1570
B8	1700
B9	181
B10	100
B11	175
B12	138
B13	164
B14	140
B15	327

From patent US20250042997A1 (PHYLAXIS BIOSCIENCE, published 2025)
